In US20170190787A1 (INSERM INSTITUT NATIONAL DE LA SANT ET DE LA RECHERCHE M …, published 2017):

B1: biparatopic single domain antibody D2E (D10 - 2x(G4S) linker - E10) (bispecific antibody)
chain: EVQLQESGGGLVQAGGSLRLSCAVSISRTIFSLYAMEWYRQPPGKQRDLVARIYRSGDTNYADSVKGRFTISRDNAKNTVYLQMNSLKPEDTGVYYCNSPAQDWPWGQGTQVTVSSAAAGGGGSGGGGSMAQVQLQESGGGLAQAGGSLRLSCAASGRTLSSYDMGWFRQAPGKEREFVTAINWGDLSTYYADSVKGRFTISRDNAKNTVYLQMNSLKPEDTAVYYCAARLRYTVSDPIFSRPDRYNYWGQGTQVTVSSAAAEQKLISEEDLNGAAHHHHHHGS
notes: also called bisdAb D2E
B2: biparatopic single domain antibody D6E (D10 - 6x(G4S) linker - E10) (bispecific antibody)
chain: EVQLQESGGGLVQAGGSLRLSCAVSISRTIFSLYAMEWYRQPPGKQRDLVARIYRSGDTNYADSVKGRFTISRDNAKNTVYLQMNSLKPEDTGVYYCNSPAQDWPWGQGTQVTVSSAAAGGGGSGGGGSGGGGSGGGGSGGGGSGGGGSMAQVQLQESGGGLAQAGGSLRLSCAASGRTLSSYDMGWFRQAPGKEREFVTAINWGDLSTYYADSVKGRFTISRDNAKNTVYLQMNSLKPEDTAVYYCAARLRYTVSDPIFSRPDRYNYWGQGTQVTVSSAAAEQKLISEEDLNGAAHHHHHHGS
notes: also called bisdAb D6E
B3: biparatopic single domain antibody D4E (D10 - 4x(G4S) linker - E10) (bispecific antibody)
chain: EVQLQESGGGLVQAGGSLRLSCAVSISRTIFSLYAMEWYRQPPGKQRDLVARIYRSGDTNYADSVKGRFTISRDNAKNTVYLQMNSLKPEDTGVYYCNSPAQDWPWGQGTQVTVSSAAAGGGGSGGGGSGGGGSGGGGSMAQVQLQESGGGLAQAGGSLRLSCAASGRTLSSYDMGWFRQAPGKEREFVTAINWGDLSTYYADSVKGRFTISRDNAKNTVYLQMNSLKPEDTAVYYCAARLRYTVSDPIFSRPDRYNYWGQGTQVTVSSAAAEQKLISEEDLNGAAHHHHHHGS
notes: also called bisdAb D4E

Assays:
[1] = target: T1, EGFR fused to SNAP-tag, expressed on transfected HEK293T cells (UniProt P00533 25-1210, terbium cryptate donor fluorochrome (SNAP-Tb) covalently on the SNAP-tag); test: time resolved fluorescence (HTRF) on EGFR-ST transfected HEK293T cells; apparent affinity
T1 construct: whole, on cells; also called EGFR-ST; ErbB1-ST; not shown: SNAP-tag and FLAG tag (Cisbio plasmid)

[2] = target: T1, EGFR fused to SNAP-tag, expressed on …; test: HTRF on living cells; D4E in the presence of a large amount of monovalent D10 blocking the D10 epitope
[3] = target: T1, EGFR fused to SNAP-tag, expressed on …; test: HTRF on living cells; D4E in the presence of a large amount of monovalent E10 blocking the E10 epitope

Binder | Kd [1] [nM] | Kd [2] [nM] | Kd [3] [nM]
B1 | 6 |  | 
B2 | 6 |  | 
B3 | 6 | 100 | 22
